Patent publication US20250339569A1 (3B PHARMACEUTICALS, published 2025)
Starred links: 1 amine or outer side, 2 acyl side, 3 side chain; linkers in the order of their positions; H or OH if unused. Positions of bridges follow the written chain, without caps; N, C: chain ends. Non-standard residues stand in square brackets, D forms with d. Groups on a side chain read outwards from the residue. Primed or numbered codes have the meaning given here. No end group written: not given here. *: point of attachment. APAc″ = 2-(4-(amino)piperidin-1-yl)acetic acid, NC1CCN(CC(=O)*)CC1; DOTA = O=C(O)CN1CCN(CC(=O)O)CCN(CC(=O)*)CCN(CC(=O)O)CC1; mXylylene = c1cc(C[*:1])cc(C[*:2])c1; NMeY = CN[C@@H](Cc1ccc(O)cc1)C(=O)O; APAc = not defined here; Apr = not defined here; AEEA = NCCOCCOCC(=O)O

B1: 3BP-3432 (peptide)
peptide: {DOTA-APAc″}-VYCE[dP]DWLTWAC-NH2
modifications: linker 3-12 via mXylylene
notes: also called DOTA-APAc-Val-Tyr-[Cys(3MeBn)-Glu-pro-Asp-Trp-Leu-Thr-Trp-Ala-Cys]-NH2
B2: 3BP-3434 (peptide)
peptide: Ac-VYCE[dP]DWLTWAC
modifications: linker 3-12 via mXylylene; not fully specified (C-terminus)
notes: also called Ac-Val-Tyr-[Cys(3MeBn)-Glu-pro-Asp-Trp-Leu-Thr-Trp-Ala-Cys]-Ape-NH-DOTA′
B3: 3BP-3732 (peptide)
peptide: Ac-SYCE[dP]DWLTWE([Apr-AEEA-DOTA])C-NH2
modifications: linker 3-12 via 3MeBn; reading uncertain
notes: also called Ac-Ser-Tyr-[Cys(3MeBn)-Glu-pro-Asp-Trp-Leu-Thr-Trp-Glu(NH-Apr-O2Oc-DOTA′)-Cys]-NH2
B4: 3BP-3597 (peptide)
peptide: {DOTA-APAc}-VYCE[dP]DWLHWSC-NH2
modifications: linker 3-12 via mXylylene; reading uncertain
notes: also called DOTA-APAc-Val-Tyr-[Cys(3MeBn)-Glu-pro-Asp-Trp-Leu-His-Trp-Ser-Cys]-NH2
B5: 3BP-3479 (peptide)
peptide: Ac-VYCE[dP]DWLTWE([Apr-AEEA-DOTA])C-NH2
modifications: linker 3-12 via mXylylene; reading uncertain
notes: also called Ac-Val-Tyr-[Cys(3MeBn)-Glu-pro-Asp-Trp-Leu-Thr-Trp-Glu(NH-Apr-O2Oc-DOTA′)-Cys]-NH2
B6: 3BP-3595 (peptide)
peptide: {DOTA-APAc}-VYCE[dP]SWLTWSC-NH2
modifications: linker 3-12 via mXylylene; reading uncertain
notes: also called DOTA-APAc-Val-Tyr-[Cys(3MeBn)-Glu-pro-Ser-Trp-Leu-Thr-Trp-Ser-Cys]-NH2
B7: 3BP-3845 (peptide)
peptide: Ac-VRCE[dP]DWLTWEC-NH2
modifications: linker 3-12 via mXylylene; not fully specified (residue 11); also: indium complexed by DOTA
notes: also called Ac-Val-Arg-[Cys(3MeBn)-Glu-pro-Asp-Trp-Leu-Thr-Trp-Glu(NH-Apr-O2Oc-InDOTA′)-Cys]-NH2
B8: 3BP-3568 (peptide)
peptide: Ac-IYCE[dP]DWLTWSC-NH2
modifications: linker 3-12 via mXylylene
SMILES: CC[C@H](C)[C@H](NC(C)=O)C(=O)N[C@@H](Cc1ccc(O)cc1)C(=O)N[C@H]1CSCc2cccc(c2)CSC[C@@H](C(N)=O)NC(=O)[C@H](CO)NC(=O)[C@H](Cc2c[nH]c3ccccc23)NC(=O)[C@H]([C@@H](C)O)NC(=O)[C@H](CC(C)C)NC(=O)[C@H](Cc2c[nH]c3ccccc23)NC(=O)[C@H](CC(=O)O)NC(=O)[C@H]2CCCN2C(=O)[C@H](CCC(=O)O)NC1=O
notes: also called Ac-Ile-Tyr-[Cys(3MeBn)-Glu-pro-Asp-Trp-Leu-Thr-Trp-Ser-Cys]-NH2
B9: 3BP-3599 (peptide)
peptide: {DOTA-APAc}-VYCE[dP]DWLTWRC-NH2
modifications: linker 3-12 via mXylylene; reading uncertain
notes: also called DOTA-APAc-Val-Tyr-[Cys(3MeBn)-Glu-pro-Asp-Trp-Leu-Thr-Trp-Arg-Cys]-NH2
B10: 3BP-3784 (peptide)
peptide: VYCE[dP]DWLTWSC-NH2
modifications: linker 3-12 via 3MeBn; not fully specified (N-terminus); also: europium complexed by DOTA
notes: also called EuDOTA-APAc-Val-Tyr-[Cys(3MeBn)-Glu-pro-Asp-Trp-Leu-Thr-Trp-Ser-Cys]-NH2
B11: 3BP-3733 (peptide)
peptide: Ac-VFCE[dP]DWLTWE([Apr-AEEA-DOTA])C-NH2
modifications: linker 3-12 via 3MeBn; reading uncertain
notes: also called Ac-Val-Phe-[Cys(3MeBn)-Glu-pro-Asp-Trp-Leu-Thr-Trp-Glu(NH-Apr-O2Oc-DOTA′)-Cys]-NH2
B12: 3BP-3565 (peptide)
peptide: Ac-VYCE[dP]DWLTWSC-NH2
modifications: linker 3-12 via mXylylene
SMILES: CC(=O)N[C@H](C(=O)N[C@@H](Cc1ccc(O)cc1)C(=O)N[C@H]1CSCc2cccc(c2)CSC[C@@H](C(N)=O)NC(=O)[C@H](CO)NC(=O)[C@H](Cc2c[nH]c3ccccc23)NC(=O)[C@H]([C@@H](C)O)NC(=O)[C@H](CC(C)C)NC(=O)[C@H](Cc2c[nH]c3ccccc23)NC(=O)[C@H](CC(=O)O)NC(=O)[C@H]2CCCN2C(=O)[C@H](CCC(=O)O)NC1=O)C(C)C
notes: also called Ac-Val-Tyr-[Cys(3MeBn)-Glu-pro-Asp-Trp-Leu-Thr-Trp-Ser-Cys]-NH2
B13: 3BP-3596 (peptide)
peptide: {DOTA-APAc}-VYCE[dP]DFLTWSC-NH2
modifications: linker 3-12 via mXylylene; reading uncertain
notes: also called DOTA-APAc-Val-Tyr-[Cys(3MeBn)-Glu-pro-Asp-Phe-Leu-Thr-Trp-Ser-Cys]-NH2
B14: 3BP-3566 (peptide)
peptide: Ac-SYCE[dP]DWLTWSC-NH2
modifications: linker 3-12 via mXylylene
SMILES: CC(=O)N[C@@H](CO)C(=O)N[C@@H](Cc1ccc(O)cc1)C(=O)N[C@H]1CSCc2cccc(c2)CSC[C@@H](C(N)=O)NC(=O)[C@H](CO)NC(=O)[C@H](Cc2c[nH]c3ccccc23)NC(=O)[C@H]([C@@H](C)O)NC(=O)[C@H](CC(C)C)NC(=O)[C@H](Cc2c[nH]c3ccccc23)NC(=O)[C@H](CC(=O)O)NC(=O)[C@H]2CCCN2C(=O)[C@H](CCC(=O)O)NC1=O
notes: also called Ac-Ser-Tyr-[Cys(3MeBn)-Glu-pro-Asp-Trp-Leu-Thr-Trp-Ser-Cys]-NH2
B15: 3BP-3844 (peptide)
peptide: Ac-VFCE[dP]DWLTWEC-NH2
modifications: linker 3-12 via mXylylene; not fully specified (residue 11); also: indium complexed by DOTA
notes: also called Ac-Val-Phe-[Cys(3MeBn)-Glu-pro-Asp-Trp-Leu-Thr-Trp-Glu(NH-Apr-O2Oc-InDOTA′)-Cys]-NH2
B16: 3BP-3571 (peptide)
peptide: Ac-VSCE[dP]DWLTWSC-NH2
modifications: linker 3-12 via mXylylene
SMILES: CC(=O)N[C@H](C(=O)N[C@@H](CO)C(=O)N[C@H]1CSCc2cccc(c2)CSC[C@@H](C(N)=O)NC(=O)[C@H](CO)NC(=O)[C@H](Cc2c[nH]c3ccccc23)NC(=O)[C@H]([C@@H](C)O)NC(=O)[C@H](CC(C)C)NC(=O)[C@H](Cc2c[nH]c3ccccc23)NC(=O)[C@H](CC(=O)O)NC(=O)[C@H]2CCCN2C(=O)[C@H](CCC(=O)O)NC1=O)C(C)C
notes: also called Ac-Val-Ser-[Cys(3MeBn)-Glu-pro-Asp-Trp-Leu-Thr-Trp-Ser-Cys]-NH2
B17: 3BP-3478 (peptide)
peptide: Ac-VYCE[dP]DWLTWE([Apr-DOTA])C-NH2
modifications: linker 3-12 via mXylylene; reading uncertain
notes: also called Ac-Val-Tyr-[Cys(3MeBn)-Glu-pro-Asp-Trp-Leu-Thr-Trp-Glu(NH-Apr-DOTA′)-Cys]-NH2
B18: 3BP-3734 (peptide)
peptide: Ac-VRCE[dP]DWLTWE([Apr-AEEA-DOTA])C-NH2
modifications: linker 3-12 via 3MeBn; reading uncertain
notes: also called Ac-Val-Arg-[Cys(3MeBn)-Glu-pro-Asp-Trp-Leu-Thr-Trp-Glu(NH-Apr-O2Oc-DOTA′)-Cys]-NH2
B19: 3BP-3588 (peptide)
peptide: Ac-VRCE[dP]DWLTWSC-NH2
modifications: linker 3-12 via mXylylene
SMILES: CC(=O)N[C@H](C(=O)N[C@@H](CCCNC(=N)N)C(=O)N[C@H]1CSCc2cccc(c2)CSC[C@@H](C(N)=O)NC(=O)[C@H](CO)NC(=O)[C@H](Cc2c[nH]c3ccccc23)NC(=O)[C@H]([C@@H](C)O)NC(=O)[C@H](CC(C)C)NC(=O)[C@H](Cc2c[nH]c3ccccc23)NC(=O)[C@H](CC(=O)O)NC(=O)[C@H]2CCCN2C(=O)[C@H](CCC(=O)O)NC1=O)C(C)C
notes: also called Ac-Val-Arg-[Cys(3MeBn)-Glu-pro-Asp-Trp-Leu-Thr-Trp-Ser-Cys]-NH2
B20: 3BP-3735 (peptide)
peptide: Ac-SRCE[dP]DWLTWE([Apr-AEEA-DOTA])C-NH2
modifications: linker 3-12 via 3MeBn; reading uncertain
notes: also called Ac-Ser-Arg-[Cys(3MeBn)-Glu-pro-Asp-Trp-Leu-Thr-Trp-Glu(NH-Apr-O2Oc-DOTA′)-Cys]-NH2
B21: 3BP-3589 (peptide)
peptide: Ac-V[NMeY]CE[dP]DWLTWSC-NH2
modifications: linker 3-12 via mXylylene
SMILES: CC(=O)N[C@H](C(=O)N(C)[C@@H](Cc1ccc(O)cc1)C(=O)N[C@H]1CSCc2cccc(c2)CSC[C@@H](C(N)=O)NC(=O)[C@H](CO)NC(=O)[C@H](Cc2c[nH]c3ccccc23)NC(=O)[C@H]([C@@H](C)O)NC(=O)[C@H](CC(C)C)NC(=O)[C@H](Cc2c[nH]c3ccccc23)NC(=O)[C@H](CC(=O)O)NC(=O)[C@H]2CCCN2C(=O)[C@H](CCC(=O)O)NC1=O)C(C)C
notes: also called Ac-Val-Nmy-[Cys(3MeBn)-Glu-pro-Asp-Trp-Leu-Thr-Trp-Ser-Cys]-NH2
B22: 3BP-3433 (peptide)
peptide: Ac-VYCE[dP]DWLTWAC
modifications: linker 3-12 via mXylylene; not fully specified (C-terminus)
notes: The printed formula ends at '-Ape-NH'; also called Ac-Val-Tyr-[Cys(3MeBn)-Glu-pro-Asp-Trp-Leu-Thr-Trp-Ala-Cys]-Mamb-Ape-NH
B23: 3BP-3583 (peptide)
peptide: {DOTA-APAc}-VYCE[dP]DWLTWSC-NH2
modifications: linker 3-12 via mXylylene; reading uncertain
notes: also called DOTA-APAc-Val-Tyr-[Cys(3MeBn)-Glu-pro-Asp-Trp-Leu-Thr-Trp-Ser-Cys]-NH2
B24: 3BP-3567 (peptide)
peptide: Ac-TYCE[dP]DWLTWSC-NH2
modifications: linker 3-12 via mXylylene
SMILES: CC(=O)N[C@H](C(=O)N[C@@H](Cc1ccc(O)cc1)C(=O)N[C@H]1CSCc2cccc(c2)CSC[C@@H](C(N)=O)NC(=O)[C@H](CO)NC(=O)[C@H](Cc2c[nH]c3ccccc23)NC(=O)[C@H]([C@@H](C)O)NC(=O)[C@H](CC(C)C)NC(=O)[C@H](Cc2c[nH]c3ccccc23)NC(=O)[C@H](CC(=O)O)NC(=O)[C@H]2CCCN2C(=O)[C@H](CCC(=O)O)NC1=O)[C@@H](C)O
notes: also called Ac-Thr-Tyr-[Cys(3MeBn)-Glu-pro-Asp-Trp-Leu-Thr-Trp-Ser-Cys]-NH2
B25: 3BP-3843 (peptide)
peptide: Ac-VYCE[dP]DWLTWEC-NH2
modifications: linker 3-12 via mXylylene; not fully specified (residue 11); also: indium complexed by DOTA
notes: also called Ac-Val-Tyr-[Cys(3MeBn)-Glu-pro-Asp-Trp-Leu-Thr-Trp-Glu(NH-Apr-O2Oc-InDOTA′)-Cys]-NH2
B26: 3BP-3570 (peptide)
peptide: Ac-VFCE[dP]DWLTWSC-NH2
modifications: linker 3-12 via mXylylene
SMILES: CC(=O)N[C@H](C(=O)N[C@@H](Cc1ccccc1)C(=O)N[C@H]1CSCc2cccc(c2)CSC[C@@H](C(N)=O)NC(=O)[C@H](CO)NC(=O)[C@H](Cc2c[nH]c3ccccc23)NC(=O)[C@H]([C@@H](C)O)NC(=O)[C@H](CC(C)C)NC(=O)[C@H](Cc2c[nH]c3ccccc23)NC(=O)[C@H](CC(=O)O)NC(=O)[C@H]2CCCN2C(=O)[C@H](CCC(=O)O)NC1=O)C(C)C
notes: also called Ac-Val-Phe-[Cys(3MeBn)-Glu-pro-Asp-Trp-Leu-Thr-Trp-Ser-Cys]-NH2

molecular target: human carbonic anhydrase 9 (CAIX) (human, UniProt Q16790 38-459); assay: FACS competition on HT-29 cells against tracer 3BP-2776; pIC50 category A = pIC50 >8.0
Method: CAIX-expressing human HT-29 colorectal cancer cells (DSMZ, RRID: CVCL_0320) were cultured in McCoys's 5A modified medium (Biochrom, #F1015) including 10% fetal calf serum (FCS), 2 mM L-glutamine, 100 U/ml penicillin and 100 μg/mL streptomycin. Cells were detached with Accutase (Biolegend, #423201) and washed in FACS buffer (PBS including 1% FCS). Cells were diluted in FACS buffer to a final concentration of 500.000 cells per ml. 200 μL of the cell suspension were transferred to a u-shaped non-binding 96-well plate (Greiner) and cells were washed in ice-cold FACS buffer.
When biotinylated compounds were used an additional incubation step with 1 μg/mL APC-Streptavidin (Miltenyi; #130-106-791) in 50 μL FACS buffer for 30 minutes on ice was performed.
Cells were washed twice with ice-cold FACS buffer and analyzed in an Attune NxT flow cytometer (Thermo Fisher). Median fluorescence intensities (MFI) of the APC/Cy5-channel were calculated by Attune NxT software.

pIC50, > 8 pic50:
B1
B2
B3
B4
B5
B6
B7
B8
B9
B10
B11
B12
B13
B14
B15
B16
B17
B18
B19
B20
B21
B22
B23
B24
B25
B26
